One test concerns the target human fibrinogen (human) (UniProt P02671). Nature of the test: ELISA; solid-phase binding: elastin (50 μg/ml), fibrinogen (10 μg/ml) or fibronectin (10 μg/ml) coated on microtitre wells; purified rFnBPB N23 in PBS added, 37°C for 2 hr; bound protein detected with anti-hexahistidine monoclonal antibody 7E8.
Test [1] deals with human fibronectin (human). The test is described as above.
The target of test [2] is human aortic elastin (human) (UniProt P15502). The test is described as above.
The target of test [3] is human fibronectin (human). Put plainly: SPR; BIAcore X100; fibrinogen, elastin or fibronectin amine-coupled to CM5 chips; rN23 type I passed over at 0.15 μM to 10 μM in PBS; blank flow cell subtracted; equilibrium dissociation constants.
The target in test [4] is T1, human aortic elastin (human, UniProt P15502 27-786).
T1 construct: elastin from human aorta; Tissue elastin is a cross-linked material; The vendor named for the ELISA differs from that named for the SPR; source: bought: Elastin Products Company (ELISA); Enzyme Research Laboratories (SPR)
T1 sequence: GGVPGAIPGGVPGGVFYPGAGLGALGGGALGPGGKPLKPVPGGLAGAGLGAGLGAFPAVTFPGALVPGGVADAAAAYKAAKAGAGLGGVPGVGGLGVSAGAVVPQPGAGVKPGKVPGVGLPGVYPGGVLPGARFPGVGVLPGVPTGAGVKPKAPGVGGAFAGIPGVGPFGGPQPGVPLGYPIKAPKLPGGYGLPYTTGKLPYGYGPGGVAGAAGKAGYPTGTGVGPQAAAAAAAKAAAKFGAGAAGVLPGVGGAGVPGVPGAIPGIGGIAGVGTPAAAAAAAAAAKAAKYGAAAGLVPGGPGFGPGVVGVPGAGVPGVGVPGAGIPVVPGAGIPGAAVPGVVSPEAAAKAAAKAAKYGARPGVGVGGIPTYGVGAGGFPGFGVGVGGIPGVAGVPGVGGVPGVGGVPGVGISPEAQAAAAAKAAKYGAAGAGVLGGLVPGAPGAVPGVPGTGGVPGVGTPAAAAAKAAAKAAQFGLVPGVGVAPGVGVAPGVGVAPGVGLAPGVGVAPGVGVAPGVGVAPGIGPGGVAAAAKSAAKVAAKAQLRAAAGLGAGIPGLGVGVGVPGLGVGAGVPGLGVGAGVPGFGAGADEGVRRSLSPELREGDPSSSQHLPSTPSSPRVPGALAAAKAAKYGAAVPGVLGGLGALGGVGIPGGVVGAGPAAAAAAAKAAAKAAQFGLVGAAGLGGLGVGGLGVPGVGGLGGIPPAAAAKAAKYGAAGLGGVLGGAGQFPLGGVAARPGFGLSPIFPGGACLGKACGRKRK
The description is as above. As to conditions: both partners purified.

For test [5], the target named is T2, human fibrinogen (human, UniProt P02671-2 20-644; P02675 31-491; P02679-2 27-437).
T2 construct: fibrinogen alpha chain, human; fibrinogen beta chain, human; fibrinogen gamma chain, human; source: bought: Calbiochem; copies: + +
T2 sequence 1: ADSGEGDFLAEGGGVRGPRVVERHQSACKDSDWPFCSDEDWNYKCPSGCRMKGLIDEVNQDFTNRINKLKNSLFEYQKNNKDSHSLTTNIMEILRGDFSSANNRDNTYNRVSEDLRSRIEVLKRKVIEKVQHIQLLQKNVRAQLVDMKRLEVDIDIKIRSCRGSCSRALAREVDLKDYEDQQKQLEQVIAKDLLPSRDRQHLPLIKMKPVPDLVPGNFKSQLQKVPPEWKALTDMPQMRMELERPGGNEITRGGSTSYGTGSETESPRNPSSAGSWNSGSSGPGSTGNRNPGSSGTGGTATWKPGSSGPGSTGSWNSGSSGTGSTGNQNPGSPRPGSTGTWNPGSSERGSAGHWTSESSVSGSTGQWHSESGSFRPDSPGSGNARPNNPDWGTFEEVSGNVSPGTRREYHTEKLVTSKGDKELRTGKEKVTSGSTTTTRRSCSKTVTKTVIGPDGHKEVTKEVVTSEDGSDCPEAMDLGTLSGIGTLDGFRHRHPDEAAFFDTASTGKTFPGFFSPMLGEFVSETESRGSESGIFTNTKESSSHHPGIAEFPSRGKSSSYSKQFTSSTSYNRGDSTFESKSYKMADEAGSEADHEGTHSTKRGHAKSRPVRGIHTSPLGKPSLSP
T2 sequence 2: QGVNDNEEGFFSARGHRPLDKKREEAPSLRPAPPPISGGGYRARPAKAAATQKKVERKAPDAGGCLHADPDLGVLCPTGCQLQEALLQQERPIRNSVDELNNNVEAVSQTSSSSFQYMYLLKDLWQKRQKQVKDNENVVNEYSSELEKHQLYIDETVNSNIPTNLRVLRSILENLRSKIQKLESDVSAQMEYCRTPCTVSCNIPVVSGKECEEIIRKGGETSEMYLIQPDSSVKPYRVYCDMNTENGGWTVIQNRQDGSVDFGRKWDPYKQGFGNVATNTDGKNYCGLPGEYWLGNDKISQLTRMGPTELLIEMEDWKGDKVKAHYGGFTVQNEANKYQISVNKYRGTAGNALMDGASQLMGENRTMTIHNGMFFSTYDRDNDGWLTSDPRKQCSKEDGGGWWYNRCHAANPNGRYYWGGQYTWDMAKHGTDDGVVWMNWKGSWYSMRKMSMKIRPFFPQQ
T2 sequence 3: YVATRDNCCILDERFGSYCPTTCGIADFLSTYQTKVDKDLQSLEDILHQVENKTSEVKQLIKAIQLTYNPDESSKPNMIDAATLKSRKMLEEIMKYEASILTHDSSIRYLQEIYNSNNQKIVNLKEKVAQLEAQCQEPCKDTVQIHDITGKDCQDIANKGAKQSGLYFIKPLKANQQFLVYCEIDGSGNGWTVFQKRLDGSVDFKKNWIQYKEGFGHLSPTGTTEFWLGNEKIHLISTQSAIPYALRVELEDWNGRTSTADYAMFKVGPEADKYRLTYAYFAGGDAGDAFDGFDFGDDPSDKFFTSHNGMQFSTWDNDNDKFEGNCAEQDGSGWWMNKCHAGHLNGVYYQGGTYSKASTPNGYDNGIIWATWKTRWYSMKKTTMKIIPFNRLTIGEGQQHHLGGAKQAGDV
The description is as above. Conditions: both partners purified.

The target in test [6] is T1, human aortic elastin. Put plainly: ELISA; solid-phase binding: elastin (50 μg/ml), fibrinogen (10 μg/ml) or fibronectin (10 μg/ml) coated on microtitre wells; purified rFnBPB N23 in PBS added, 37°C for 2 hr; bound protein detected with anti-hexahistidine monoclonal antibody 7E8. As to conditions: both partners purified.
The target of test [7] is T2, human fibrinogen. The test is described as above. Conditions: both partners purified.

For “recombinant FnBPB N23 isotype IV from S. aureus strain P1 (domain or fragment)”, the EC50 is 500 nM in the test with human fibrinogen (human), 1500 nM in test [1] and 900 nM in test [2].
For “recombinant FnBPB N23 isotype VI from S. aureus strain 3077 (domain or fragment)” the same measures were 500 nM, 1500 nM and 900 nM.
On to “recombinant FnBPB N23 isotype VII from S. aureus strain 233 (domain or fragment)”, for which the EC50 was 500 nM in the test with human fibrinogen (human), 1500 nM in test [1] and 900 nM in test [2].
Taken in the same sequence, the figures for “recombinant FnBPB N23 isotype II from S. aureus strain N315 (domain or fragment)” were 500 nM, 1500 nM and 900 nM.
For “recombinant FnBPB N23 isotype III from S. aureus strain MSSA476 (domain or fragment)” the same measures were 500 nM, 1500 nM and 900 nM.
“recombinant FnBPB N23 isotype I (residues 162-480) from S. aureus strain 8325-4 (from UniProt A0A0H2XKG3 162-480) (domain or fragment)” yielded an EC50 in test [1] of 1500 nM. In test [3], this molecule yielded a Kd of 2500 nM.
“recombinant FnBPB N23 isotype V from S. aureus strain 2 (domain or fragment)”: the figures for the EC50 (with human fibrinogen (human); in test [1]; in test [2]) were 500 nM, 1500 nM and 900 nM, respectively.

B1: recombinant FnBPB N23 isotype I (residues 162-480) from S. aureus strain 8325-4 (domain or fragment)
chain: TGTDVTNKVEVEEGSEIVGHKQDTNVVNPHNAERVTLKYKWKFGEGIKAGDYFDFTLSDNVETHGISTLRKVPEIKSTDGQVMATGEIIGERKVRYTFKEYVQEKKDLTAELSLNLFIDPTTVTQKGNQNVEVKLGETTVSKIFNIQYLGGVRDNWGVTANGRIDTLNKVDGKFSHFAYMKPNNQSLSSVTVTGQVTKGNKPGVNNPTVKVYKHIGSDDLAESVYAKLDDVSKFEDVTDNMSLDFDTNGGYSLNFNNLDQSKNYVIKYEGYYDSNASNLEFQTHLFGYYNYYYTSNLTWKNGVAFYSNNAQGDGKDKLK
notes: cloned BamHI/SmaI into pQE30 with a 3' stop codon; also called rN23 isotype I; rN23 type I; source: E. coli TOPP 3, pQE30, purified (Ni2+ chelate chromatography); not shown: His6, N-terminal, kept
Take B1: the Kd in the test with human aortic elastin [4] turned out to be 3200 nM; in the test with human fibrinogen [5], 2000 nM. The EC50 with human aortic elastin [6] was about 900 nM; with human fibrinogen [7], about 500 nM.

The record behind these values is paper PMC2894786, “Fibronectin-binding protein B variation in Staphylococcus aureus” (BMC Microbiology, 2010).
